# Reference: the supplement of paper PMC10567573
# B1: CDKN1A (parent)
# chain: GRKRRQTSMTDFYHSKRRLIFSKR
# B2: TRIM9 (parent)
# chain: CVQCKMPVCYQCLEEGKHSSHEVK
# Variants of: B1
# Experiment: protein stability index of a GFP-peptide fusion (GPS, HEK-293T) (PSI 1-6); higher = more stable
# Conditions: c terminus: a fixed tail appended
# 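Further: lentivirally expressed fusions sorted by FACS into six bins by GFP to DsRed ratio, PSI derived from sequencing read proportions per bin multiplied by bin number.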
row,Variant,protein stability index
1,R5L,3.53
2,R5H,3.17
3,R5S,2.44
4,R5A,2.74
5,R5Q,2.87
6,R5I,3.03
7,R5G,2.4
8,R5Y,3.17
9,R5F,2.64
10,R5N,2.74
11,R5T,3.64
12,R5K,2.57
13,K23T,3.3
14,K23Q,1.58
15,K23A,3.19
16,K23D,2.95
17,K23W,2.87
18,K23S,2.78
19,K23Y,2.74
20,K23L,1.96
21,K23N,2.3
22,K23P,2.48
23,K23F,3.02
24,R17C,2.76
25,R17A,2.13
26,R17W,2.28

row,Variant,protein stability index
1,R17P,2.62
2,R17S,3.19
3,R17D,3.57
4,R17N,3.38
5,R17F,2.19
6,R17I,2.97
7,R17H,2.64
8,R17E,3.75
9,R17V,4.34
10,R17T,3.02
11,R17Q,3.46
12,R17K,3.87
13,R17G,2.04
14,R17M,3.08
15,Q6G,2.76
16,Q6C,3.21
17,Q6A,2.06
18,Q6W,2.47
19,Q6M,2.04
20,Q6S,2.25
21,Q6Y,2.67
22,Q6I,2.79
23,Q6K,2.55
24,Q6V,2.38
25,Q6R,2.4
26,Q6T,3.34

row,Variant,protein stability index
1,Q6D,2.1
2,Q6E,2.73
3,Q6H,3.62
4,K16N,2.99
5,K16C,3.39
6,K16T,4.09
7,K16A,3.51
8,K16Q,2.83
9,K16R,4.25
10,K16H,2.96
11,K16E,3.76
12,K16G,2.62
13,K16W,3.97
14,K16Y,2.93
15,K16V,3.12
16,K16I,3.82
17,K16P,2.07
18,K16F,2.28
19,F12T,2.78
20,F12Q,2.46
21,F12A,3.27
22,F12E,3.15
23,F12G,3.04
24,F12Y,2.17
25,F12P,3.34
26,F12R,2.73

row,Variant,protein stability index
1,F12S,2.42
2,F12H,1.61
3,F12K,2.36
4,F12D,3.14
5,F12C,2.3
6,F12V,3.38
7,I20C,2.93
8,I20T,2.86
9,I20D,2.84
10,I20W,2.3
11,I20A,3.46
12,I20M,2.86
13,I20S,2.5
14,I20K,2.99
15,I20R,2.15
16,I20F,3.1
17,I20N,3.51
18,R18A,3.35
19,R18Q,1.47
20,R18C,2.37
21,R18N,2.76
22,R18S,2.77
23,R18V,2.93
24,R18P,2.11
25,R18M,1.86
26,R18H,2.15

row,Variant,protein stability index
1,R18L,3.13
2,R18G,2.8
3,R18K,2.64
4,R18F,2.78
5,R18T,2.45
6,R18D,2.48
7,L19N,3
8,L19H,3.78
9,L19M,3.98
10,L19W,3.25
11,L19I,2.65
12,L19F,2.88
13,L19G,2.71
14,L19R,2.77
15,L19K,3.86
16,L19Y,3.91
17,L19S,3.31
18,L19C,2.81
19,L19P,2.14
20,L19Q,3.85
21,S15Y,3.78
22,S15M,1.92
23,S15L,1.78
24,S15T,2.44
25,S15W,3.71
26,S15N,3.16

row,Variant,protein stability index
1,S15R,3.43
2,S15C,2.1
3,S15A,2.47
4,S15P,2.59
5,S15F,3.02
6,F21L,3.08
7,F21A,2.4
8,F21D,3.79
9,F21K,3.14
10,F21W,3.45
11,F21I,3.27
12,F21T,3.22
13,F21P,1.99
14,F21S,3.66
15,F21M,3.48
16,F21C,3.58
17,F21H,3
18,F21N,3.63
19,F21Y,3.38
20,F21G,3.13
21,F21E,2.62
22,Y13M,2.33
23,Y13F,3.27
24,Y13P,3.53
25,Y13W,2.7
26,Y13H,3.22

row,Variant,protein stability index
1,Y13D,4.24
2,Y13T,3.69
3,Y13N,3.25
4,Y13C,3.2
5,Y13R,3.93
6,Y13K,2.66
7,Y13Q,3.92
8,Y13S,3.57
9,Y13E,3.73
10,Y13G,3.02
11,Y13V,2.79
12,K3P,2.16
13,K3Q,2.98
14,K3V,2.83
15,K3S,3.96
16,K3N,2.73
17,K3W,2.56
18,K3T,2.5
19,K3Y,5.28
20,R24D,3.29
21,R24I,2.91
22,R24P,3.22
23,R24L,3.19
24,R24Y,2.91
25,R24G,3.52
26,R24W,3.26

row,Variant,protein stability index
1,R24S,3.62
2,R24T,2.21
3,R24Q,3.2
4,R24M,2.17
5,R24V,2
6,R24C,3.93
7,R24H,2.4
8,R24K,2.24
9,R24A,3.13
10,R24N,3.1
11,R24E,2.67
12,R24F,2.24
13,R4C,2.73
14,R4H,2.98
15,R4D,3.24
16,R4W,3.56
17,R4S,2.85
18,R4T,3.95
19,R4Y,3.36
20,R4M,2.77
21,R4P,3.12
22,R4E,3.62
23,R4A,2.39
24,R4G,3.58
25,R4N,4.63
26,R4K,3.46

row,Variant,protein stability index
1,S22R,2.79
2,S22N,2.57
3,S22I,2.53
4,S22Q,3.09
5,S22A,3.99
6,S22M,4.04
7,S22D,2.17
8,S22C,2.35
9,S22T,2.87
10,D11K,2.77
11,D11Q,2.89
12,D11F,2.51
13,D11T,2.2
14,D11S,3.06
15,D11L,2.29
16,D11W,2.21
17,D11Y,2.07
18,D11A,2.37
19,D11M,3.13
20,D11R,3.33
21,D11P,3.34
22,D11N,2.4
23,D11V,2.44
24,D11I,2.12
25,D11H,1.82
26,T7C,2.87

row,Variant,protein stability index
1,T7N,2.48
2,T7Y,2.65
3,T7W,2.36
4,T7M,2.6
5,T7A,1.97
6,T7I,2.38
7,T7E,2.22
8,T7D,2.1
9,T7L,2.79
10,T7Q,2.12
11,T7H,2.67
12,T7S,2.71
13,T7K,3.09
14,M9R,3.05
15,M9T,1.91
16,M9C,2.34
17,M9P,2.69
18,M9H,3.21
19,M9A,2.66
20,M9I,3.23
21,M9K,2.62
22,M9E,2.27
23,M9N,3.29
24,M9S,3.08
25,M9F,2.6
26,M9V,2.96

row,Variant,protein stability index
1,M9L,2.98
2,M9G,3.98
3,M9W,3.37
4,M9D,4.34
5,S8I,2.6
6,S8L,3.4
7,S8T,3.3
8,S8K,3.4
9,S8C,3.59
10,S8D,2.46
11,S8E,2.74
12,S8A,2.41
13,S8H,4.01
14,S8P,1.76
15,S8Q,2.69
16,S8F,3.4
17,S8R,2.72
18,S8M,2.68
19,S8Y,2.35
20,H14C,2.43
21,H14S,2.34
22,H14I,2.72
23,H14Y,4
24,H14L,3.02
25,H14P,4.57
26,H14W,2.08

row,Variant,protein stability index
1,H14N,3.62
2,H14Q,3.39
3,H14M,3.3
4,H14F,2.96
5,H14R,3.52
6,H14E,3.45
7,T10L,2.45
8,T10R,2.39
9,T10W,2.16
10,T10A,1.75
11,T10G,2.85
12,T10K,2.52
13,T10H,2.93
14,T10F,3.46
15,T10P,2.48
16,T10Y,2.53
17,T10C,3.68
18,T10M,2.38
19,T10S,2.54

# Variants of: B2
# Experiment: as above
# Conditions: c terminus: a fixed tail appended
row,Variant,protein stability index
1,KVQCKMPVCYQCLEEGKHSSHEVK [C1K],3.65
2,RVQCKMPVCYQCLEEGKHSSHEVK [C1R],3.58
3,HVQCKMPVCYQCLEEGKHSSHEVK [C1H],4.52
4,PVQCKMPVCYQCLEEGKHSSHEVK [C1P],2.86
5,WVQCKMPVCYQCLEEGKHSSHEVK [C1W],2.98
6,VVQCKMPVCYQCLEEGKHSSHEVK [C1V],3.23
7,FVQCKMPVCYQCLEEGKHSSHEVK [C1F],2.58
8,DVQCKMPVCYQCLEEGKHSSHEVK [C1D],3.77
9,GVQCKMPVCYQCLEEGKHSSHEVK [C1G],2.88
10,NVQCKMPVCYQCLEEGKHSSHEVK [C1N],2.79
11,EVQCKMPVCYQCLEEGKHSSHEVK [C1E],3.95
12,IVQCKMPVCYQCLEEGKHSSHEVK [C1I],3.08
13,TVQCKMPVCYQCLEEGKHSSHEVK [C1T],3.75
14,QVQCKMPVCYQCLEEGKHSSHEVK [C1Q],4.03
15,LVQCKMPVCYQCLEEGKHSSHEVK [C1L],3.27
16,MVQCKMPVCYQCLEEGKHSSHEVK [C1M],2.93
